Source: PMC8406312, “Reovirus Nonstructural Protein σNS Recruits Viral RNA to Replication Organelles” (mBio, 2021)
Positions count from the first letter of the chain named. Names and notes keep the numbering of the source.

B1: reovirus nonstructural protein σNS, wild type, in vitro expressed (natural protein)
chain: MASSLRAAISKIKRDDVGQQVCPNYVMLRSSVTTKVVRNVVEYQIRTGGFFSCLAMLRPLQYAKRERLLGQRNLERISTRDILQTRDLHSLCMPTPDAPMSNHQASTMRELICSYFKVDHADGLKYIPMDERYSPSSLARLFTMGMAGLHITTEPSYKRVPIMHLAADLDCMTLALPYMITLDGDTVVPVAPTLSAEQLLDDGLKGLACMDISYGCEVDANSRPAGDQSMDSSRCINELYCEETAEAICVLKTCLVLNCMQFKLEMDDLAHNAAELDKIQMMIPFSERVFRMASSFATIDAQCFRFCVMMKDKNLKIDMRETTRLWTRSASDDSVATSSLSISLDRGRWVAADASDARLLVFPIRV
modifications: [35S]methionine-labelled
notes: nonstructural protein σNS of mammalian orthoreovirus (reovirus) strain T3D, S3 gene; same plasmid as m1, expressed in reticulocyte lysate; also called WT σNS; source: in vitro translated (TNT T7 polymerase-coupled rabbit reticulocyte lysate), not purified
B2: σNS R14A, in vitro expressed (natural protein)
chain: B1 chain with R14A
modifications: [35S]methionine-labelled
notes: nonstructural protein σNS of mammalian orthoreovirus (reovirus) strain T3D, S3 gene; same plasmid as m4; also called R14A σNS; source: in vitro translated (TNT T7 polymerase-coupled rabbit reticulocyte lysate), not purified
B3: σNS K35A, in vitro expressed (natural protein)
chain: B1 chain with K35A
modifications: [35S]methionine-labelled
notes: nonstructural protein σNS of mammalian orthoreovirus (reovirus) strain T3D, S3 gene; same plasmid as m8; also called K35A σNS; source: in vitro translated (TNT T7 polymerase-coupled rabbit reticulocyte lysate), not purified
B4: σNS TriA (K11A, K13A, and R14A), in vitro expressed (natural protein)
chain: B1 chain with K11A, K13A, R14A
modifications: [35S]methionine-labelled
notes: nonstructural protein σNS of mammalian orthoreovirus (reovirus) strain T3D, S3 gene; same plasmid as m5; also called TriA σNS; source: in vitro translated (TNT T7 polymerase-coupled rabbit reticulocyte lysate), not purified
B5: σNS K11A, in vitro expressed (natural protein)
chain: B1 chain with K11A
modifications: [35S]methionine-labelled
notes: nonstructural protein σNS of mammalian orthoreovirus (reovirus) strain T3D, S3 gene; same plasmid as m3; also called K11A σNS; source: in vitro translated (TNT T7 polymerase-coupled rabbit reticulocyte lysate), not purified
B6: σNS R38A, in vitro expressed (natural protein)
chain: B1 chain with R38A
modifications: [35S]methionine-labelled
notes: nonstructural protein σNS of mammalian orthoreovirus (reovirus) strain T3D, S3 gene; same plasmid as m9; also called R38A σNS; source: in vitro translated (TNT T7 polymerase-coupled rabbit reticulocyte lysate), not purified
B7: σNS Y25A, in vitro expressed (natural protein)
chain: B1 chain with Y25A
modifications: [35S]methionine-labelled
notes: nonstructural protein σNS of mammalian orthoreovirus (reovirus) strain T3D, S3 gene; same plasmid as m6; also called Y25A σNS; source: in vitro translated (TNT T7 polymerase-coupled rabbit reticulocyte lysate), not purified
B8: σNS R29A, in vitro expressed (natural protein)
chain: B1 chain with R29A
modifications: [35S]methionine-labelled
notes: nonstructural protein σNS of mammalian orthoreovirus (reovirus) strain T3D, S3 gene; same plasmid as m7; also called R29A σNS; source: in vitro translated (TNT T7 polymerase-coupled rabbit reticulocyte lysate), not purified
B9: σNS R6A, in vitro expressed (natural protein)
chain: B1 chain with R6A
modifications: [35S]methionine-labelled
notes: nonstructural protein σNS of mammalian orthoreovirus (reovirus) strain T3D, S3 gene; same plasmid as m2; also called R6A σNS; source: in vitro translated (TNT T7 polymerase-coupled rabbit reticulocyte lysate), not purified

Target: the molecule itself
Assay: native gel or EMSA; 35S-labelled σNS expressed in rabbit reticulocyte lysate, incubated without RNase A (125 mM NaCl) at 37°C for 1 h; blue native PAGE, 4-16% bis-Tris, 4°C; autoradiography; RNA of the lysate present, the ladders of oligomers are RNA-dependent

| Protein | stoichiometry N |
| --- | --- |
| B1 | ≥ 6 |
| B2 | 2 |
| B3 | 2 |
| B4 | 2 |
| B5 | 2 |
| B6 | 2 |
| B7 | 2 |
| B8 | 2 |
| B9 | 2 |

Target: the molecule itself
Assay: native gel or EMSA; 35S-labelled σNS expressed in rabbit reticulocyte lysate, incubated with 10 μg RNase A at 37°C for 1 h; blue native PAGE, 4-16% bis-Tris, 4°C; autoradiography

| Protein | stoichiometry N |
| --- | --- |
| B1 | 2 |
